Series [1] concerns T1, Cc1cc2nc3c(=O)[nH]c(=O)nc-3n(C[C@H](O)[C@H](O)[C@H](O)COP(=O)(O)O)c2cc1C.
T1 construct: recombinant 6His-tagged cytosolic isoform 2, purified
The experiment in a line: spectrofluorimetric FAD synthesis assay. The series is classed as biochemical, Homo sapiens. Conditions: 50 mM Tris-HCl pH 7.5, 5 mM MgCl2, 37°C, Km app at the highest ATP (ATP 1 to 100 μM; 8 μM at lowest ATP).

Series [2] relates to T2, Nc1ncnc2c1ncn2[C@@H]1O[C@H](COP(=O)(O)OP(=O)(O)OP(=O)(O)O)[C@@H](O)[C@H]1O.
T2 construct: recombinant 6His-tagged cytosolic isoform 2, purified
The experiment in a line: spectrofluorimetric FAD synthesis assay. Type of series: biochemical, Homo sapiens. The settings on record: 50 mM Tris-HCl pH 7.5, 5 mM MgCl2, 37°C, FMN 0.1-2 μM, ordered bi-bi, ATP binds first.

Sequence of 6His-hFADS2 (Homo sapiens) (chain, as listed by the source): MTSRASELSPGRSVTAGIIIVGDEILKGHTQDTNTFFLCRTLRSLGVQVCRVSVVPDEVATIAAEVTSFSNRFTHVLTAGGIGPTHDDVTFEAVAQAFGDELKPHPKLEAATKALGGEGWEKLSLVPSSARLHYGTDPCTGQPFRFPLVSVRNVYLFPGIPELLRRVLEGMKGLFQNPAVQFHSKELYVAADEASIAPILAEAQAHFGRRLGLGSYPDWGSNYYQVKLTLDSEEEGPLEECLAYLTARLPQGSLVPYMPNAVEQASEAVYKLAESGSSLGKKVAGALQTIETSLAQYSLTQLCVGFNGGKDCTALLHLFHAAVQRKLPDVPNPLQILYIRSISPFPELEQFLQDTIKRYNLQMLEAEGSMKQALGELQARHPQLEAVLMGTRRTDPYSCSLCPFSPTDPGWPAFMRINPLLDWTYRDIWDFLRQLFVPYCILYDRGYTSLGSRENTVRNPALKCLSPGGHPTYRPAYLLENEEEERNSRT

As usually defined, the Km is the concentration of substrate that gives half-maximal velocity. On to 6His-hFADS2 (Homo sapiens), for which the figures for the Km in series [1] and in series [2] were 0.4 µM and 15 µM, respectively.

The record behind these values is publication PMC4406087, “Remaining challenges in cellular flavin cofactor homeostasis and flavoprotein biogenesis” (Frontiers in Chemistry, 2015).
